Patent US11202837B2, “Biological materials and uses thereof” (Antikor Biopharma Limited, priority 2014, dated 2021)
Values joined by “and” are separate entries in the source; they are usually repeats but may differ in a detail not shown here. Equal values may be shown once.

Tests used:
[1] = test system: BT474 human breast carcinoma xenografts; assay: Tumour penetration in BT474 xenografts, immunohistochemistry 2 hrs post dose; format: in vivo, mouse; details: 5 mg/kg single i.v. dose, SCID mice, BT474, payload detection (total ADC)
Method: (§1) Mice. […] The animals were fed ad libitum water (reverse osmosis, 1 ppm Cl), and NIH 31 Modified and Irradiated Lab Diet® consisting of 18.0% crude protein, 5.0% crude fat, and 5.0% crude fiber. The mice were housed on irradiated Enrich-o'cobs™ Laboratory Animal Bedding in static microisolators on a 12-hour light cycle at 20-22° C. (68-72° F.) and 40-60% humidity. Charles River Discovery Services North Carolina (CR Discovery Services, who carried out this contracted R&D) specifically complies with the recommendations of the Guide for Care and Use of Laboratory Animals with respect to restraint, husbandry, surgical procedures, feed and fluid regulation, and veterinary care. The animal care and use program at CR Discovery Services is accredited by the Association for Assessment and Accreditation of Laboratory Animal Care International (AAALAC), which assures compliance with accepted standards for the care and use of laboratory animals.
Therapeutic (test) Agents. […] All dosing solutions were stored at 4° C. until dosed. […] Treatment.

[2] = test system: BT474 human breast carcinoma xenografts; assay: Tumour growth inhibition or eradication in BT474 xenograft model; format: in vivo
Method: as §1, with “care.” for “care. The animal care and use program at CR Discovery Services is accredited by the Association for Assessment and Accreditation of Laboratory Animal Care International (AAALAC), which assures compliance with accepted standards for the care and use of laboratory animals.”
Tumor weight may be estimated with the assumption that 1 mg is equivalent to 1 mm^3 of tumor volume.

[3] = Plasma pharmacokinetics in Sprague-Dawley rats (ELISA); format: in vivo, rat; details: for Bioavailability (blood exposure, AUC, 24 hrs): mean AUC in anti-payload and anti-protein detection; for Elimination half-life (hrs) Total Antibody: plasma ELISA
Method: Rats. Male Sprague-Dawley rats (sourced from Charles River, UK) were group housed in a temperature and light controlled facility on a 12 hour light/dark cycle with food and water available ad libitum. Rats selected for study inclusion were individually housed until completion of the study. All animals were subjected to health monitoring in accordance with the guidelines by the onsite home office registered veterinarian. All animal experimentation was covered under the UK Animals (Scientific Procedures) Act (1986) and EU directive 86/609/EEC. All such work was monitored by regular inspections of procedures and facilities by the on-site Veterinarian and UK Home Office inspectors. The study design required the surgical implantation of catheters into the jugular of male Sprague-Dawley rats.
Rats were anaesthetised using the inhalation anaesthetic isoflurane and placed in dorsal recumbency. The right jugular vein was exposed and a loose ligature was placed caudally and the cranial end of vein was ligated. A small incision was made between the ligatures into which the catheter (polyethylene 50 tubing) was inserted. The catheter was secured in place by tying the loose ligature around the catheterised vessel. A small incision was made in the scapular region to serve as the exit site of the catheter. The catheter was subcutaneously tunneled and exteriorised through the scapular incision. Patency of the catheter was tested, and the catheter was filled with a locking solution (heparinised saline) and sealed with a stainless steel pin. Post-operative monitoring of animals was performed according to Home Office good practice guidelines. Intravenous dosing was via the tail vein.
(§2) Therapeutic (test) Agents. All test agents were supplied as ready-to-dose dosing solutions. All dosing solutions were stored at 4° C. until dosed. All treatments were administered in a dosing volume scaled to the body weights of the individual animals to obtain the dosing concentration described in the treatment tables.
Treatment (rats). On Day 1 of the study, rats were divided into groups of three animals (per test agent being evaluated), and dosing was initiated according to the treatment plan summarized in the tables below
Sampling (rats). Serial venous blood samples (approx. 0.1-0.2 ml) were collected via the exteriorised jugular vein catheter at specified time points (0.5 to 72 hrs post dosing) and placed in heparinised containers. Prior to taking the blood samples the catheter was evacuated of heparinised saline to prevent dilution of the blood sample. Following each blood sample the volume of blood removed is replaced with an equal volume of heparinised saline via the catheter and sealed. Blood samples were centrifuged (5 minutes, 16,100 g, 4° C.) to separate the plasma. Plasma samples were transferred to fresh containers and promptly frozen and stored at −20° C. until used for analysis.
(§3) Quantification of test agents in plasma. An ELISA was carried out as described in Example 31 The detecting antibodies were (a) Anti-T7 tag to detect the scFv (total antibody), (b) Anti-Human Fab-specific to detect trastuzumab (total antibody), (c) Anti-MMAF (Concortis), Anti-MMAE (Concortis), anti-DM1
(§4) (Concortis) and anti-cemadotin (in-house mouse monoclonal antibody, Example 33 that also recognised P5C5 and AuristatinF), total ADC. The reference test agents were used to construct a calibration curve for which the plasma samples were compared to, in order to quantify the amount present. The concentration was plotted against time (average of three animals with standard error) and fitted to a 2-phase decay curve using GraphPad Prism to derive kinetic parameters.

[4] = Concentration reached and storage stability of purified conjugates in buffer; format: physicochemical; details: after purification and concentration
HER2 [5] = biological target: T1, HER2 (Homo sapiens, UniProt P04626); assay: Rat urine analysed on a HER2-Biacore SPR chip; format: in vivo; details: 10-fold concentrated urine, compared to free scFv samples
Method: (A) A single i.v. dose was injected into male Sprague-Dawley rats at 4 mg/kg. Plasma samples were taken at time points indicated and analysed by ELISA using anti-protein detection (total protein, indicated by solid lines, closed symbols) and where relevant anti-drug detection (total ADC, indicated by dashed lines, open symbols). The SE of the mean of each group and experimental triplicates are shown. ADC scFv (TCT1067)-P5C5 (circles) (n=3) and scFv (TCT1067) (squares) (n=3). (B) 10-fold concentrated urine collected over 24 hours analysed on a HER2-Biacore SPR chip for the scFv (TCT1067)-injected rats, 3 animal samples. The scFv reference is shown. The bulk shifts in the urine samples are due to the concentration of urine components. (C) 10-fold concentrated urine collected over 24 hours analysed on a HER2-Biacore SPR chip for the scFv (TCT1067)-P5C5 conjugate-injected rats, 3 animal samples. The scFv (TCT1067)-P5C5 reference is shown. The bulk shifts in the urine samples are due to the concentration of urine components.
The scFv (TCT1067)-P5C5 conjugate were detected in the plasma via its T7 tag (detecting total antibody) and via the payload (detecting total ADC). […] The urine from the treated animals was collected over 24 hours, concentrated 10-fold in a spin concentrator (MWCO-10 kDa) and dialysed against PBS. These samples, from three rats per group, were analysed on a Biacore SPR chip.

[6] = Body weight and tolerability in BT474 xenograft studies; format: in vivo, mouse; details: BT474 xenograft study
Excerpt: Treatment-Related Side Effects. Test animals were weighed Day 1. Animals were observed frequently for overt signs of any adverse, treatment-related side effects. Individual body weight loss was monitored every other day and any animal whose weight exceeded the limits for acceptable body weight loss was euthanized. Group mean body weight loss also was monitored as per protocol. Acceptable toxicity for the maximum tolerated dose (MTD) was defined as a group mean body weight loss of less than 20% during the test.

[7] = Aggregation by HPLC size-exclusion chromatography; format: physicochemical
Method: Aggregation can be tested by analytical size-exclusion HPLC measuring the percentage of high molecular weight material compared to the conjugate eluting at a retention time characteristic of a monomeric conjugate.
Typically, 20 μg of protein was injected for analytical runs and 300 μg for semi-preparative runs.

[8] = Plasma pharmacokinetics in BALB/c mice (ELISA, total antibody and total ADC); format: in vivo, mouse; details: for Bioavailability (blood exposure, AUC, 24 hrs) / Elimination half-life (hrs) Total Antibody: mice; for Bioavailability (blood exposure, AUC, 24 hrs): mean AUC in anti-payload and anti-protein detection; for Elimination half-life (hrs) Total Antibody: plasma ELISA
Method: Mice. Female BALB/c mice (BALB/cAnNCrl, Charles River) were eight weeks old with body weights ranging from 15.9 to 21.9 grams at the beginning of the study. The animals were fed ad libitum water (reverse osmosis, 1 ppm Cl) and NIH 31 Modified and Irradiated Lab Diet® consisting of 18.0% crude protein, 5.0% crude fat, and 5.0% crude fiber. The mice were housed on irradiated Enrich-o'cobs™ Laboratory Animal Bedding in static microisolators on a 12-hour light cycle at 20-22° C. (68-72° F.) and at 40-60% humidity. Charles River Discovery Services North Carolina (CR Discovery Services, who carried out this contracted R&D) specifically complies with the recommendations of the Guide for Care and Use of Laboratory Animals with respect to restraint, husbandry, surgical procedures, feed and fluid regulation, and veterinary care. The Animal Care and Use program at CR Discovery Services is accredited by the Association for Assessment and Accreditation of Laboratory Animal Care International, which assures compliance with accepted standards for the care and use of laboratory animals.
as §2
Treatment (mice). On Day 1 of the study, mice were divided into groups each consisting of eighteen mice (per test agent being evaluated), and dosing was initiated according to the treatment plan summarized in the treatment tables. All doses were administered intravenously (i.v.) by tail vein injection as described in the tables below.
Endpoint. The study endpoint occurred after the last sampling point, typically on Day 2 or 4, twenty-four or seventy-two hours post dose.
Sampling (mice). Blood (full blood volume) was collected from three animals per treatment group per timepoint. Samples were collected from all animals via terminal cardiac puncture under isoflurane anesthesia. Once collected, blood samples were collected into collection tubes containing lithium heparin or K2EDTA as anticoagulants and were processed for plasma at each timepoint. Each plasma sample was stored at −80° C. until used for analysis.
as §3, §4

HER2 [9] = biological target: T1, HER2; assay: Biacore SPR binding to immobilised HER2; details: immobilised HER2
Outline: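 HER2 amine-coupled on CM5 or CM3 chips, Biacore T200. Free antibody (typically 5-0.6 μg/ml) and conjugates (20-2.5 μg/ml) injected 160 s at 30 μl/min, 900 s dissociation (3600 s at highest concentration); regeneration with 8M MgCl2. Kinetics compared with unmodified scFv.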

HER2 [10] = biological target: T1, HER2; details: by mutagenesis, Schier R et al (1996); cited from earlier work
[11] = single i.v. dose 4 mg/kg, male Sprague-Dawley rats

B1: scFv (TCT1067)-P5-C5 (conjugate)
scFv: SGSGGSGQVQLVQSGAEVKKPGESLKISCKGSGYSFTSYWIAWVRQMPGKGLEYMGLIYPGDSDTKYSPSFQGQVTISVDKSVSTAYLQWSSLKPSDSAVYFCARHDVGYCTDRTCAAWPEWLGVWGQGTLVTVSSGGGGSGGGGSGGGGSQSVLTQPPSVSAAPGQKVTISCSGSSSNIGNNYVSWYQQLPGTAPKLLIYGHTNRPAGVPDRFSGSKSGTSASLAISGFRSEDEADYYCASWDYTLSGWVFGGGTKLTVLMASMTGGQQMG
In the case of B1, the “localisation in tumour sections at 2 hrs post-dosing” value [1] is reported as “localise throughout the tumour”, the tumour growth delay ([2]; 5 mg/kg dosing regimen) is reported as ~20 days and the “tumour shrinkage compared with the trastuzumab ADC” value ([2]; scFv ADC dosed more frequently) is reported as “more effectively”. For the same molecule, the “Bioavailability (blood exposure, AUC, 24 hrs)” value ([3]; rats, 1 × 4 mg/kg, Table 64) was 90.1 μghr/ml, the “Elimination half-life (hrs) Total ADC” value ([3]; rats, 1 × 4 mg/kg, plasma ELISA anti-payload, Table 64) was 2.2085 h and the “Elimination half-life (hrs) Total Antibody” value ([3]; rats, 1 × 4 mg/kg, Table 64) was 0.512 h. The “increase in bioavailability (AUC) over unmodified scFv” value [3, 11] was 4.5 fold, the “plasma clearance (in words)” value [3, 11] was “clears more slowly than the unmodified fragment” and the “stability in plasma (total antibody vs total ADC clearance lines)” value ([3]; single i.v. dose 4 mg/kg, rats) was “stable in plasma”. The “volume of distribution compared to unmodified scFv” value ([3]; single i.v. dose 4 mg/kg, rats) was “lower volume of distribution”, the “time stable in the buffer” value [4] was “several months” and the “HER2 binding activity in urine collected over 24 hours” value (HER2 [5]) was “comparable binding activity”. For the same molecule, the “body weight, heavier than the IgG ADC group of mice” value [6] was “up to 20%” and the “tolerability from body weights (in words)” value [6] was “better tolerated”.

B2: scFv (TCT1067) (protein)
scFv: SGSGGSGQVQLVQSGAEVKKPGESLKISCKGSGYSFTSYWIAWVRQMPGKGLEYMGLIYPGDSDTKYSPSFQGQVTISVDKSVSTAYLQWSSLKPSDSAVYFCARHDVGYCTDRTCAAWPEWLGVWGQGTLVTVSSGGGGSGGGGSGGGGSQSVLTQPPSVSAAPGQKVTISCSGSSSNIGNNYVSWYQQLPGTAPKLLIYGHTNRPAGVPDRFSGSKSGTSASLAISGFRSEDEADYYCASWDYTLSGWVFGGGTKLTVLMASMTGGQQMG
With B2 the “% aggregate by HPLC-SEC (FIG. 71)” value ([7]; scFv conjugation reaction with 5 molar equivalents of Auristatin F-C5 NHS (reactions 1 and 4)) was 0%, the “% aggregate by HPLC-SEC (FIG. 71)” value ([7]; scFv conjugation reaction with 10 molar equivalents of Auristatin F-C5 NHS (reactions 2 and 5)) was 0% and the “% aggregate by HPLC-SEC (FIG. 71)” value ([7]; scFv conjugation reaction with 25 molar equivalents of Auristatin F-C5 NHS (reactions 3 and 6)) was 0%. The “Bioavailability (blood exposure, AUC, 24 hrs)” value ([3]; rats, 1 × 4 mg/kg, Table 64) was 20.46 μghr/ml, the “Elimination half-life (hrs) Total Antibody” value ([3]; rats, 1 × 4 mg/kg, Table 64) was 0.8 h and the “plasma clearance (in words)” value [3, 11] was “clears rapidly”. The “Bioavailability (blood exposure, AUC, 24 hrs)” value ([8]; 1 × 2 mg/kg, Table 61 (AF-C5)) was 8.13 μghr/ml, the “Bioavailability (blood exposure, AUC, 24 hrs)” value ([8]; 1 × 2 mg/kg, Table 62) was 8.13 μghr/ml and the “Elimination half-life (hrs) Total Antibody” value ([8]; 1 × 2 mg/kg, Table 61 (AF-C5)) was 1.05 h. For the same molecule, the “Elimination half-life (hrs) Total Antibody” value ([8]; 1 × 2 mg/kg, Table 62) was 1.05 h, the “Bioavailability (blood exposure, AUC, 24 hrs)” value ([8]; 1 × 5 mg/kg, Table 57) was 8.12 μghr/ml and the “Elimination half-life (hrs) Total Antibody” value ([8]; 1 × 5 mg/kg, Table 57) was 1.05 h. The “plasma clearance (in words)” value ([8]; single i.v. dose, female BALB/c mice (5 mg/kg MMAF-C5, P5C5; 2 mg/kg AF-C5, DM1)) was “clears rapidly”, the association rate (HER2 [9]) was 3.9e+06 M⁻¹ s⁻¹ and 3.88e+06 M⁻¹ s⁻¹ and the dissociation rate (HER2 [9]) was 3.7e-05 s⁻¹ and 3.69e-05 s⁻¹. For the same molecule, the “increase of binding affinity over the anti-HER2 scFv of Example 27” value (HER2 [10]) was “over 1000 fold”.
